In patent publication US9205136B2, “Human aminoacyl-tRNA synthetase polypeptides useful for the regulation of angiogenesis” (THE SCRIPPS RESEARCH INSTITUTE, priority 2000, dated 2015):
“Also recorded” adds a separate entry of the source.

How the values were obtained:
MPs [1] = assay: MP tissue factor production (Factor VIIa-dependent Factor Xa formation); assay type: cell-based, human; details: 1 nM sample protein, 4 hours
Method: (§1) Cells for the various cytokine assays described were prepared from acid citrate dextrose-treated blood of normal healthy volunteers. Human PMNs were isolated from the blood by centrifugation (700×g) over Histopaque 1077 and 1119 (Sigma). […] This procedure was repeated twice. Human MPs were isolated by centrifugation on Histopaque 1077 (Sigma). The mononuclear fraction was obtained, washed twice in Hanks' balanced salt solution, resuspended in RPMI-1640 medium (Sigma) containing 10% heat-inactivated fetal bovine serum (Sigma), plated in tissue culture flasks, and incubated in a 6% CO2 incubator at 37° C. for 1-2 hours (Kumagai et al., 1979, J. Immunol. Methods 29:17-25). Nonadherent cells were removed by washing the flasks three times with Hanks' balanced salt solution, and adherent cells were harvested by incubation with calcium-magnesium free phosphate-buffered saline containing 2 mM EDTA for 15 minutes at 4° C., followed by extensive washing.
MP tissue factor production was examined following incubation of 10^4 MPs with 1 nM of sample protein for 4 hours. Tissue factor activity was then inferred from measurements of Factor VIIa-dependent Factor Xa formation (Wolfson et al., 1990 J. Chromatogr., 503:277-81). Each determination shown in FIG. 2 represents the mean of four measurements from at least three independent experiments.

PMNs [2] = assay: 125I-human mini TyrRS binding and competition assay on PMNs; details: 10 nM 125I-mini TyrRS, 200-fold molar excess of unlabeled ligand, on ice 2 hours
In short: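 Human PMNs (2×10^6) in RPMI-1640 with 20 mM Hepes pH 7.4 and 10 mg/ml BSA were incubated with radioiodinated mini TyrRS. Bound and free label were separated by centrifugation through a 10% sucrose/PBS cushion, and cell-associated radioactivity was counted by scintillation.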

[3] = tested on: chick chorioallantoic membrane (CAM); assay: In vivo angiogenesis assay in chick chorioallantoic membrane (CAM); details: 250 ng TyrRS molecule or 25 ng VEGF165 on filter disk, 72 hours
Method: In vivo angiogenesis assays were conducted in chick chorioallantoic membrane (CAM) (Nicolaou et al., 1998, Bioorg. Med. Chem. 6:1185-208). Ten-day-old chick embryos were purchased from Mcintyre Poultry (Lakeside, Calif.) and were incubated at 37° C. and 70% humidity. A small hole was made with a small crafts drill (Dremel, Emerson Electric, Racine, Wis.) directly over the air sac at the end of the egg. The embryos were candled to determine a location to drill a second hole directly over embryonic blood vessels. […] A window was cut in the eggshell over the dropped CAM, exposing the CAM to direct access for experimental manipulation. Cortisone acetate-treated 5 mm filter disks were soaked with a particular protein sample (25 ng of VEGF165 or 250 ng of a given TyrRS molecule) and the filter disks added directly to the CAMs, which were relatively devoid of preexisting blood vessels. The windows were sealed with sterile tape and incubated at 37° C. […] After 72 hours, the CAM tissue associated with the filter disk was harvested and quantified using a stereomicroscope. Angiogenesis was assessed as the number of visible blood vessel branch points within the defined area of the filter disks. Each determination shown in FIG. 17 represents the mean from 5-8 embryos.

type A IL-8 receptor = biological target: T1, type A IL-8 receptor (Homo sapiens, UniProt P25024); assay: Binding to RBL2H3 cells transfected with IL-8 receptor type A; details: read-out: Kd on cells expressing the type A IL-8 receptor; transfected RBL2H3 rat basophilic leukemia cells
T1 construct: expressed in transfected cells; host or cells: RBL2H3 rat basophilic leukemia cells
T1 sequence (P25024 1-350): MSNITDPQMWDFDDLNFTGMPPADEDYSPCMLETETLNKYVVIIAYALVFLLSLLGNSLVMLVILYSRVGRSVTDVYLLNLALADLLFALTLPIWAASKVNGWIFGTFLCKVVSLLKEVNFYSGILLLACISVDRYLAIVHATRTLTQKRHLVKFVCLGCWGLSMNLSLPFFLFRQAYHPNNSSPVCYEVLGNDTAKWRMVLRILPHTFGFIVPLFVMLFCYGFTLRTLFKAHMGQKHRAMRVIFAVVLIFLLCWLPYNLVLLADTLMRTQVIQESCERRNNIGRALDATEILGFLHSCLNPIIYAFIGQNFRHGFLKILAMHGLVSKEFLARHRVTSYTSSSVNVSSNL
Method: (§2) Following incubation, cells were separated from unbound radioactivity as described herein.
(§3) Untransfected RBL2H3 cells express neither the type A nor type B receptors.

MPs [4] = assay: MP TNFα production (ELISA of culture supernatant); assay type: cell-based, human; details: 1 nM sample protein, 14 hours
Method: as §1
MP TNFα production was examined following incubation of 10^5 MPs with 1 nM of sample protein for 14 hours. Aliquots of the culture supernatant were then assayed for TNFα production using a TNFα enzyme-linked immunosorbent assay kit (Sigma). Each determination shown in FIG. 2 represents the mean of four measurements from at least three independent experiments.

PMNs [5] = assay: PMN chemotaxis assay (ChemoTX microchemotaxis chamber); assay type: cell-based, human; details: for PMN chemotaxis (PMN migration): sample proteins 1 nM, 45 min
In short: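 Human PMNs were isolated from healthy-donor blood over Histopaque 1077/1119. 10^4 cells were placed in the upper compartment of a ChemoTX microchemotaxis chamber, with sample protein at 1 nM in the lower compartment. After 45 min, migrated cells were counted as the mean of nine HPFs.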

type B receptor = biological target: T2, type B receptor (Homo sapiens, UniProt P25025); assay: Binding to RBL2H3 cells transfected with IL-8 receptor type B; details: transfected RBL2H3 rat basophilic leukemia cells; read-out: Kd on cells expressing the type B receptor
T2 construct: expressed in transfected cells; host or cells: RBL2H3 rat basophilic leukemia cells
T2 sequence (P25025 1-360): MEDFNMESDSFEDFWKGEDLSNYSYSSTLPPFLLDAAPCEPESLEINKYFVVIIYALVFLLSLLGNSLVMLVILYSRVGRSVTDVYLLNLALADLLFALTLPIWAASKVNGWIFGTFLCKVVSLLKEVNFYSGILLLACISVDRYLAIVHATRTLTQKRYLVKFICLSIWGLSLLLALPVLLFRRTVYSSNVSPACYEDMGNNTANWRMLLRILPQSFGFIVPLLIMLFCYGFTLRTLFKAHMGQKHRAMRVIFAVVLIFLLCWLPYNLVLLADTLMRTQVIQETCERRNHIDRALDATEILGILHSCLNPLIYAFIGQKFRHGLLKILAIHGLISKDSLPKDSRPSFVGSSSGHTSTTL
Method: as §2, §3

Kd (type A IL-8 receptor): 8 nM
Kd (type B receptor): > 200 nM
B1: mini TyrRS: truncated TyrRS, residues 1-364 of full-length TyrRS, amino-terminal catalytic domain (protein)
chain: MGDAPSPEEKLHLITRNLQEVLGEEKLKEILKERELKIYWGTATTGKPHVAYFVPMSKIADFLKAGCEVTILFADLHAYLDNMKAPWELLELRVSYYENVIKAMLESIGVPLEKLKFIKGTDYQLSKEYTLDVYRLSSVVTQHDSKKAGAEVVKQVEHPLLSGLLYPGLQALDEEYLKVDAQFGGIDQRKIFTFAEKYLPALGYSKRVHLMNPMVPGLTGSKMSSSEEESKIDLLDRKEDVKKKLKKAFCEPGNVENNGVLSFIKHVLFPLKSEFVILRDEKWGGNKTYTAYVDLEKDFAAEVVHPGDLKNSVEVALNKLLDPIREKFNTPALKKLASAAYPDPSKQKPMAKGPAKNSEPEEVILEHHHHHH
modifications: His6 tag; Human mini TyrRS in pET20B
notes: truncated TyrRS, residues 1-364 of full-length TyrRS, amino-terminal catalytic domain
MP tissue factor production (MPs [1]): did not stimulate production
inhibition of 125I-mini TyrRS binding to PMNs by unlabeled ligand (PMNs [2]): inhibited the binding; also recorded: inhibited by the presence of excess amounts of unlabeled mini TyrRS
in vivo angiogenesis in chick CAM (blood vessel branch points) [3]: induced angiogenesis
MP TNFα production (MPs [4]): did not stimulate production
concentration dependence of PMN migration (PMNs [5]): bell-shaped concentration dependence
PMN chemotaxis (PMN migration) (PMNs [5]): did induce PMN migration
PMN chemotaxis (PMN migration) (PMNs [5]; listed as human mini TyrRS): led to an induction of PMN migration
